In patent US20240209044:

Experiments:
[1] = system: ZAP, zeta activating peptide, the PKCzeta uORF-encoded peptide
[2] = system: T1, ZIP, zeta inhibitory peptide, the pseudo-substrate peptide of the PKCzeta regulatory domain
T1 sequence: SIYRRGARRWRKL

| Substance | kinase activity (phosphorylation of MBP, 32P-γ-ATP in vitro kinase assay, dose series of peptide) [1] | kinase activity (phosphorylation of MBP, 32P-γ-ATP in vitro kinase assay, dose series of peptide) [2] | phosphorylation of MBP by PKC isoforms (32P-γATP in vitro kinase assay) [1] |
| --- | --- | --- | --- |
| PKMzeta, truncated version of PKCzeta containing only the kinase domain | the ZAP peptide activates the kinase activity of both PKCzeta and PKMzeta | the known PS ZIP peptide inhibits their activity | – |
| PKCgamma, HA-tagged, immunoprecipitated from HEK293T lysate | – | – | the peptide had no effect on the phosphorylation of MBP by the PKC isoforms PKCeta (PKCη), PKCtheta (PKCθ), PKCgamma (PKCγ), and PKCalpha (PKCα) |
| PKCdelta, HA-tagged, immunoprecipitated from HEK293T lysate | – | – | enhanced the phosphorylation of PKC isoforms of the novel PKC sub-family of PKCzeta, PKCdelta and PKCepsilon |
